From paper PMC9576728

Assays:
POU2F3 = POU2F3 (UniProt Q9UKI9); test: co-immunoprecipitation (IP:HA) and western blot, quantified; conditions: HEK293T cells, IP:HA lanes, parent: 1
FLAG-POU2F3 = FLAG-POU2F3 (UniProt Q9UKI9); test: co-immunoprecipitation (IP:FLAG) and western blot, quantified; conditions: HEK293T cells, IP:FLAG lanes, parent: 1

Q: Which ratio to parent (POU2F3; normalised POU2F3/COLCA2 ratio) does the source give for “HA-COLCA2 (WT) (from UniProt A8K830) VKELL>DAAPP (V>D; K>A; E>A; L>P; L>P; residue numbers not printed)” here?
A: 0.37

Q: What about the ratio to parent (POU2F3; raw POU2F3 band (untagged control lane 0.29; HA bait band WT 1, DAAPP 1.44)) of the same substance?
A: 0.53

Q: And the ratio to parent (FLAG-POU2F3; normalised COLCA2/POU2F3 ratio)?
A: 0.52

Q: And the ratio to parent (FLAG-POU2F3; raw HA band (V5-POU2F3 control lane 0; FLAG bait band WT 1, DAAPP 1.07, V5 control 0.09))?
A: 0.56
